Assay results reported in paper PMC10079658.

What was measured:
[1] = biological target: His-Hsp70 (Heat Shock Protein 70) (UniProt P0DMV8); assay: fluorescence plate binding assay; settings: 25 mM HEPES, 5 mM MgCl2, 300 mM KCl, pH 7.4 (BLI) or 7.5 (SELEX), 24 °C, plate assay washes with 1% BSA
[2] = biological target: His-Hsp70 (Heat Shock Protein 70) (UniProt P0DMV8); assay: BLI; settings: 25 mM HEPES, 5 mM MgCl2, 300 mM KCl, pH 7.4 (BLI) or 7.5 (SELEX), 24 °C, plate assay washes with 1% BSA
[3] = tested on: His-CPA (C-terminus of RNA polymerase subunit PA) (Influenza A); assay: fluorescence plate binding assay; settings: all A are 7-phenylbutyl-7-deaza-dA (A*); 25 mM HEPES, 5 mM MgCl2, 300 mM KCl, pH 7.4 (BLI) or 7.5 (SELEX), 24 °C; plate assay washes with 1% BSA, 0.05% Tween …; aptamers folded 95 °C 5 min then cooled
His-SUMO [4] = assay: fluorescence plate binding assay; settings: all A are 7-phenylbutyl-7-deaza-dA (A*); 25 mM HEPES, 5 mM MgCl2, 300 mM KCl, pH 7.4 (BLI) or 7.5 (SELEX), 24 °C; plate assay washes with 1% BSA, 0.05% Tween …; aptamers folded 95 °C 5 min then cooled
[5] = tested on: His-NPA (N-terminus of RNA polymerase subunit PA) (Influenza A); assay: fluorescence plate binding assay; settings: all A are 7-phenylbutyl-7-deaza-dA (A*); 25 mM HEPES, 5 mM MgCl2, 300 mM KCl, pH 7.4 (BLI) or 7.5 (SELEX), 24 °C; plate assay washes with 1% BSA, 0.05% Tween …; aptamers folded 95 °C 5 min then cooled
SBP-Hsp70 = SBP-Hsp70 (UniProt P0DMV8); assay: BLI; settings: all A are 7-phenylbutyl-7-deaza-dA (A*); 25 mM HEPES, 5 mM MgCl2, 300 mM KCl, pH 7.4 (BLI) or 7.5 (SELEX), 24 °C; plate assay washes with 1% BSA, 0.05% Tween …; aptamers folded 95 °C 5 min then cooled
[6] = tested on: His-CPA (C-terminus of RNA polymerase subunit PA) (Influenza A); assay: BLI; settings: all A are 7-phenylbutyl-7-deaza-dA (A*); 25 mM HEPES, 5 mM MgCl2, 300 mM KCl, pH 7.4 (BLI) or 7.5 (SELEX), 24 °C; plate assay washes with 1% BSA, 0.05% Tween …; aptamers folded 95 °C 5 min then cooled
His-SUMO [7] = assay: BLI; settings: all A are 7-phenylbutyl-7-deaza-dA (A*); 25 mM HEPES, 5 mM MgCl2, 300 mM KCl, pH 7.4 (BLI) or 7.5 (SELEX), 24 °C; plate assay washes with 1% BSA, 0.05% Tween …; aptamers folded 95 °C 5 min then cooled
[8] = tested on: His-NPA (N-terminus of RNA polymerase subunit PA) (Influenza A); assay: BLI; settings: all A are 7-phenylbutyl-7-deaza-dA (A*); 25 mM HEPES, 5 mM MgCl2, 300 mM KCl, pH 7.4 (BLI) or 7.5 (SELEX), 24 °C; plate assay washes with 1% BSA, 0.05% Tween …; aptamers folded 95 °C 5 min then cooled
[9] = all A are 7-phenylbutyl-7-deaza-dA (A*), 0.05% Tween …, aptamers folded 95 °C 5 min then cooled
[10] = all A after nt 19 are 7-phenylbutyl-7-deaza-dA (A*), 0.05% Tween 20, aptamers folded 95 °C 5 min then …
[11] = A after nt 19 are 7-phenylbutyl-7-deaza-dA (A*), 0.05% Tween 20, aptamers folded 95 °C 5 min then …
[12] = none (natural dA), 0.05% Tween 20, aptamers folded 95 °C 5 min then …

Work on “GCAGCAGAGATAGACGCTATTCTCTAGACCTTCTAATTTACATACTCCAATGGCATAGCTGGCAC [HSc-2]” yielded a Kd ([1]; error printed as 6 in Table 6, all A after nt 19 plus those marked A* are 7-phenylbutyl-7-deaza-dA, except none in 5' primer region (nt 1-19), printed A26 and later marked A*, 0.05% Tween 20, aptamers folded 95 °C 5 min then …) of 245 nM and a Kd ([2]; all A after nt 19 plus those marked A* are 7-phenylbutyl-7-deaza-dA, except none in 5' primer region (nt 1-19), printed A26 and later marked A*, 0.05% Tween 20, aptamers folded 95 °C 5 min then …) of 66 nM.

For “AGACCTCATAGTCCTTCTAATTATACTCCAATGGCATAGCTGGCAC [HSc-9.1]”, the Kd [3] was 1000 nM, the Kd [1, 9] was 14.8 nM and the Kd (His-SUMO [4]) was 1110 nM. For the same sequence, the Kd [5] was 1250 nM, the Kd (SBP-Hsp70) was 28.5 nM and the Kd [6] was 1240 nM. The Kd [2, 9] was 29.1 nM, the Kd (His-SUMO [7]) was 1320 nM and the Kd [8] was 1550 nM.

Work on “GCAGCAGAGATAGACGCTAAGACCTCATAGTCCTTCTAATTATACTCCAATGGCATAGCTGGCAC [HSc-9]” yielded a Kd [1, 10] of 29.1 nM and a Kd [2, 10] of 36 nM.

In the case of “GCAGCAGAGATAGACGCTATCGATGACTATAATTCCCATCTATCATCCAATGGCATAGCTGGCAC [Scr1]”, the Kd [1, 11] is reported as 536 nM and the Kd [2, 11] is reported as 560 nM.

“GCAGCAGAGATAGACGCTACCCCTTAATAAAAACATACGGTCCATTCCCGTCGTACGATTGATTG [Scr2]” showed a Kd [1, 11] of 687 nM and a Kd [2, 11] of 620 nM.

With “GCAGCAGAGATAGACGCTATTCTCTAGACCTTCTAATTTACATACTCCAATGGCATAGCTGGCAC [HSNat-2]” the Kd [1, 12] was greater than 10000 nM and the Kd [2, 12] was greater than 5000 nM.

Work on “GCAGCAGAGATAGACGCTAAGACCTCATAGTCCTTCTAATTATACTCCAATGGCATAGCTGGCAC [HSNat-9]” yielded a Kd [1, 12] greater than 10000 nM and a Kd [2, 12] of 4650 nM.

Sequence “GCAGCAGAGATAGACGCTACCCCTTAATAAAAACATACGGTCCATTCCCGTCGTACGATTGATTG [Scr3]” has a Kd [1, 11] of 775 nM and a Kd [2, 11] of 700 nM.
